Data published in publication PMC9520404, “G-quadruplexes formation within the promoter of TEAD4 oncogene and their interaction with Vimentin”.

How the values were obtained:
Vimentin [1] = molecular target: T1, Vimentin (human, UniProt P08670 1-466); assay: EMSA; 150 mM KCl; 8 uM Vimentin, 500 nM DNA; 5 mM Tris pH 8.4, 150 mM KCl, 1 h at room temperature; 1.5% agarose in 1x TBE + 10 mM KCl, run at 4 C; details: protein: recombinant
Vimentin [2] = molecular target: T1, Vimentin; assay: EMSA; DNA annealed in 150 mM KCl; 8 uM Vimentin, 500 nM DNA; 5 mM Tris pH 8.4, 150 mM KCl, 1 h at room temperature; 1.5% agarose in 1x TBE + 10 mM KCl, run at 4 C; details: protein: recombinant; parallel G4-repeat after annealing in 150 mM KCl
Vimentin [3] = molecular target: T1, Vimentin; assay: EMSA; DNA annealed in 150 mM KCl; no free DNA left; 8 uM Vimentin, 500 nM DNA; 5 mM Tris pH 8.4, 150 mM KCl, 1 h at room temperature; 1.5% agarose in 1x TBE + 10 mM KCl, run at 4 C; details: protein: recombinant; parallel G4-repeat

T1 sequence (P08670 whole entry): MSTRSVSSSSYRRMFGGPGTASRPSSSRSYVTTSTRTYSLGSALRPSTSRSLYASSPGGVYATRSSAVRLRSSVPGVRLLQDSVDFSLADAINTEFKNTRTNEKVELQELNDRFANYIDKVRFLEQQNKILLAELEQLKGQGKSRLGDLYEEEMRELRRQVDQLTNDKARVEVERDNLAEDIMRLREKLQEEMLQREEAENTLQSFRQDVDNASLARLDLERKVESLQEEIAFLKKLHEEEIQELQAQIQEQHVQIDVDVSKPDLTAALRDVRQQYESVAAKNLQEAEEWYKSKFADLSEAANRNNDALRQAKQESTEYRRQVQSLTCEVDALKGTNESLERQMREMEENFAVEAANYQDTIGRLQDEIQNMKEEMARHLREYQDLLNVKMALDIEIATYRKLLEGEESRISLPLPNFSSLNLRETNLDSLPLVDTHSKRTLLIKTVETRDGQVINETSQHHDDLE

Binder: CGGGGCGGGGCGGGGCCGGGC (structured_DNA) [TEAD4-far]
- binding result (Vimentin [1]; G4, parallel and antiparallel components): no binding

Binder: CGGGCGGGCGAGGGGCCGGGC (structured_DNA) [TEAD4-near]
- binding result (Vimentin [1]; intramolecular G4, mainly antiparallel): no binding

Binder: CGGGCGGGCGAGGGGCCGGGCCGCCGGGGCGGGGCGGGGCCGGGC (structured_DNA) [TEAD4-full]
- binding result (Vimentin [2]): binds

Binder: CGGGCGGGCGAGGGGCCGGGTTGTTGGGGCGGGGCGGGGCCGGGC (structured_DNA) [TEAD4-full-2TT]
- binding result (Vimentin [3]): binds
